The values that follow come from US20230295310A1 (ABCELLERA BIOLOGICS, published 2023).

In this experiment the target is human EGFR, C-terminal eGFP-tagged, on CHO-K1 cells (human, UniProt P00533 25-1210). The experiment in a line: cell-based or functional assay.

B1: GOMP001_bsAb_031 (bispecific antibody, human IgG1, kappa, L234A L235A)
heavy 1: QVQLVQSGAEVKKPGASVKVSCKASGYTFTSHWMHWVRKAPGQGLEWIGEFNPSNGRTNYNEEFKSKATMTVDTSTNTAYMELSSLRSEDTAVYYCASRDYDYDGRYFDYWGQGTLVTVSSASTKGPSVFPLAPSSKSTSGGTAALGCLVADYFPEPVTVSWNSGALTSGVHTFPAVLQSSGLYSLSSVVTVPSSSLGTQTYICNVNHKPSNTKVDEKVEPKSCDKTHTCPPCPAPEAAGGPSVFLFPPKPKDTLMISRTPEVTCVVVDVSHEDPEVKFNWYVDGVEVHNAKTKPREEQYNSTYRVVSVLTVLHQDWLNGKEYKCKVSNKALPAPIEKTISKAKGQPREPQVYTLPPSREEMTDNQVSLTCLVKGFYPSDIAVEWESNGQPENNYKTTPPVLMSDGSFFLASKLTVDKSRWQQGNVFSCSVMHEALHNHYTQKSLSLSPG
light 1: RIQMTQSPSSLSASVGDRVTITCSASSSVTYMYWYQDKPGKAPKLLIYDTSNLASGVPSRFSGSGSGTDYTFTISSLQPEDIATYYCQQWSSHIFTFGQGTKVEIKRTVAAPSVFIFPPSDKQLKSGTARVVCLLNNFYPREAKVQWKVDNALQSGNSQESVTEQDSKDSTYSLSSTLTLSKADYEKHKVYACEVTHQGLSSPVTKSFNRGEC
heavy 2: QGQLVESGGGVVQPGRSLRLSCAASGFTFRGFGMHWVRYAPGKGLEWVAIIYYDGKNKYYADRVKGRFTISRDNSKNTLYLQMNSLRAEDTAVYYCAKGGGYNWFDPWGRGTLVTVSSASTKGPSVFPLAPSSKSTSGGTAALGCLVKDYFPEPVTVSWNSGALTSGVHTFPAVLQSSGLYSLSSVVTVPSSSLGTQTYICNVNHKPSNTKVDKKVEPKSCDKTHTCPPCPAPEAAGGPSVFLFPPKPKDTLMISRTPEVTCVVVDVSHEDPEVKFNWYVDGVEVHNAKTKPREEQYNSTYRVVSVLTVLHQDWLNGKEYKCKVSNKALPAPIEKTISKAKGQPRRPRVYTLPPSREEMTKNQVSLVCLVKGFYPSDIAVEWESNGQPENNYKTTPPVLDSDGSFFLYSVLTVDKSRWQQGNVFSCSVMHEALHNHYTQKSLSLSPG
light 2: DIQMTQSPSSLSASVGDRVTITCRASQSISTYLNWYQRKPGDAPKLLIYSASSLQSGVPSRFSGSGSGTDFTLTISNLQPEDFAIYYCQRSYSPPFTFGPGTKLDIRRTVAAPSVFIFPPSDEQLKSGTASVVCLLNNFYPREAKVQWKVDNALQSGNSQESVTEQDSKDSTYSLSSTLTLSKADYEKHKVYACEVTHQGLSSPVTKSFNRGEC
Take B1: the “EC50 CHO-K1 EGFR Low (nM); T cell activation bioassay, luciferase” value (shortened to “EC50 CHO-K1 EGFR Low (nM)”) came to 1.66 nM and the “EC50 CHO-K1 EGFR Med (nM); T cell activation bioassay, luciferase” value (from here on “EC50 CHO-K1 EGFR Med (nM)”) was 0.446 nM.

B2: GOMP001_bsAb_032 (bispecific antibody, human IgG1, kappa, L234A L235A)
heavy 1: QGQLVESGGGVVQPGRSLRLSCAASGFTFRGFGMHWVRYAPGKGLEWVAIIYYDGKNKYYADRVKGRFTISRDNSKNTLYLQMNSLRAEDTAVYYCAKGGGYNWFDPWGRGTLVTVSSASTKGPSVFPLAPSSKSTSGGTAALGCLVKDYFPEPVTVSWNSGALTSGVHTFPAVLQSSGLYSLSSVVTVPSSSLGTQTYICNVNHKPSNTKVDKKVEPKSCDKTHTCPPCPAPEAAGGPSVFLFPPKPKDTLMISRTPEVTCVVVDVSHEDPEVKFNWYVDGVEVHNAKTKPREEQYNSTYRVVSVLTVLHQDWLNGKEYKCKVSNKALPAPIEKTISKAKGQPRRPRVYTLPPSREEMTKNQVSLVCLVKGFYPSDIAVEWESNGQPENNYKTTPPVLDSDGSFFLYSVLTVDKSRWQQGNVFSCSVMHEALHNHYTQKSLSLSPG
light 1: DIQMTQSPSSLSASVGDRVTITCRASQSISTYLNWYQRKPGDAPKLLIYSASSLQSGVPSRFSGSGSGTDFTLTISNLQPEDFAIYYCQRSYSPPFTFGPGTKLDIRRTVAAPSVFIFPPSDEQLKSGTASVVCLLNNFYPREAKVQWKVDNALQSGNSQESVTEQDSKDSTYSLSSTLTLSKADYEKHKVYACEVTHQGLSSPVTKSFNRGEC
heavy 2: QVQLVQSGAEVKKPGASVKVSCKASGYTFTSHWMHWVRYAPGQGLEWIGEFNPSNGRTNYNEKFKSKATMTVDTSTNTAYMELSSLRSEDTAVYYCASRDYDYDGRYFDYWGRGTLVTVSSASTKGPSVFPLAPSSKSTSGGTAALGCLVKDYFPEPVTVSWNSGALTSGVHTFPAVLQSSGLYSLSSVVTVPSSSLGTQTYICNVNHKPSNTKVDKKVEPKSCDKTHTCPPCPAPEAAGGPSVFLFPPKPKDTLMISRTPEVTCVVVDVSHEDPEVKFNWYVDGVEVHNAKTKPREEQYNSTYRVVSVLTVLHQDWLNGKEYKCKVSNKALPAPIEKTISKAKGQPRRPRVYTLPPSREEMTKNQVSLVCLVKGFYPSDIAVEWESNGQPENNYKTTPPVLDSDGSFFLYSVLTVDKSRWQQGNVFSCSVMHEALHNHYTQKSLSLSPG
light 2: DIQMTQSPSSLSASVGDRVTITCSASSSVTYMYWYQRKPGDAPKLLIYDTSNLASGVPSRFSGSGSGTDYTFTISSLQPEDIATYYCQQWSSHIFTFGQGTKVEIKRTVAAPSVFIFPPSDEQLKSGTASVVCLLNNFYPREAKVQWKVDNALQSGNSQESVTEQDSKDSTYSLSSTLTLSKADYEKHKVYACEVTHQGLSSPVTKSFNRGEC
As for B2, the “EC50 CHO-K1 EGFR Low (nM)” value came to 0.122 nM and the “EC50 CHO-K1 EGFR Med (nM)” value amounted to 0.0482 nM.

B3: GOMP001_bsAb_037 (bispecific antibody, human IgG1, kappa, L234A L235A)
heavy 1: QVQLVQSGAEVKKPGASVKVSCKASGYTFTSHWMHWVRKAPGQGLEWIGEFNPSNGRTNYNEEFKSKATMTVDTSTNTAYMELSSLRSEDTAVYYCASRDYDYDGRYFDYWGQGTLVTVSSASTKGPSVFPLAPSSKSTSGGTAALGCLVADYFPEPVTVSWNSGALTSGVHTFPAVLQSSGLYSLSSVVTVPSSSLGTQTYICNVNHKPSNTKVDEKVEPKSCDKTHTCPPCPAPEAAGGPSVFLFPPKPKDTLMISRTPEVTCVVVDVSHEDPEVKFNWYVDGVEVHNAKTKPREEQYNSTYRVVSVLTVLHQDWLNGKEYKCKVSNKALPAPIEKTISKAKGQPREPQVYTLPPSREEMTDNQVSLTCLVKGFYPSDIAVEWESNGQPENNYKTTPPVLMSDGSFFLASKLTVDKSRWQQGNVFSCSVMHEALHNHYTQKSLSLSPG
light 1: RIQMTQSPSSLSASVGDRVTITCSASSSVTYMYWYQDKPGKAPKLLIYDTSNLASGVPSRFSGSGSGTDYTFTISSLQPEDIATYYCQQWSSHIFTFGQGTKVEIKRTVAAPSVFIFPPSDKQLKSGTARVVCLLNNFYPREAKVQWKVDNALQSGNSQESVTEQDSKDSTYSLSSTLTLSKADYEKHKVYACEVTHQGLSSPVTKSFNRGEC
heavy 2: EVQLVESGGVLVKTGGSLRLSCVASGFSFKKAWMNWVRYAPGKGLEWVGRIKRNSDGGAADYAARVKDRFTLSRDDSKNTLYLQMNSLKTEDTAVYYCTTLDSSSWYVGYYYMDVWGRGTTVTVSSASTKGPSVFPLAPSSKSTSGGTAALGCLVKDYFPEPVTVSWNSGALTSGVHTFPAVLQSSGLYSLSSVVTVPSSSLGTQTYICNVNHKPSNTKVDKKVEPKSCDKTHTCPPCPAPEAAGGPSVFLFPPKPKDTLMISRTPEVTCVVVDVSHEDPEVKFNWYVDGVEVHNAKTKPREEQYNSTYRVVSVLTVLHQDWLNGKEYKCKVSNKALPAPIEKTISKAKGQPRRPRVYTLPPSREEMTKNQVSLVCLVKGFYPSDIAVEWESNGQPENNYKTTPPVLDSDGSFFLYSVLTVDKSRWQQGNVFSCSVMHEALHNHYTQKSLSLSPG
light 2: DIHMTQSPSSVSASLGDRVTFTCRASQNINNWLAWYQRKPGDAPKLLIYTASSLQSGVPSRFSGSGSGTDFTLTISSLQPDDFATYYCQQAHSLPITFGQGTRLGIKRTVAAPSVFIFPPSDEQLKSGTASVVCLLNNFYPREAKVQWKVDNALQSGNSQESVTEQDSKDSTYSLSSTLTLSKADYEKHKVYACEVTHQGLSSPVTKSFNRGEC
Regarding B3, the “EC50 CHO-K1 EGFR Low (nM)” value was determined as 0.183 nM and the “EC50 CHO-K1 EGFR Med (nM)” value turned out to be 0.028 nM.

B4: GOMP001_bsAb_038 (bispecific antibody, human IgG1, kappa, L234A L235A)
heavy 1: EVQLVESGGVLVKTGGSLRLSCVASGFSFKKAWMNWVRYAPGKGLEWVGRIKRNSDGGAADYAARVKDRFTLSRDDSKNTLYLQMNSLKTEDTAVYYCTTLDSSSWYVGYYYMDVWGRGTTVTVSSASTKGPSVFPLAPSSKSTSGGTAALGCLVKDYFPEPVTVSWNSGALTSGVHTFPAVLQSSGLYSLSSVVTVPSSSLGTQTYICNVNHKPSNTKVDKKVEPKSCDKTHTCPPCPAPEAAGGPSVFLFPPKPKDTLMISRTPEVTCVVVDVSHEDPEVKFNWYVDGVEVHNAKTKPREEQYNSTYRVVSVLTVLHQDWLNGKEYKCKVSNKALPAPIEKTISKAKGQPRRPRVYTLPPSREEMTKNQVSLVCLVKGFYPSDIAVEWESNGQPENNYKTTPPVLDSDGSFFLYSVLTVDKSRWQQGNVFSCSVMHEALHNHYTQKSLSLSPG
light 1: DIHMTQSPSSVSASLGDRVTFTCRASQNINNWLAWYQRKPGDAPKLLIYTASSLQSGVPSRFSGSGSGTDFTLTISSLQPDDFATYYCQQAHSLPITFGQGTRLGIKRTVAAPSVFIFPPSDEQLKSGTASVVCLLNNFYPREAKVQWKVDNALQSGNSQESVTEQDSKDSTYSLSSTLTLSKADYEKHKVYACEVTHQGLSSPVTKSFNRGEC
heavy 2: QVQLVQSGAEVKKPGASVKVSCKASGYTFTSHWMHWVRYAPGQGLEWIGEFNPSNGRTNYNEKFKSKATMTVDTSTNTAYMELSSLRSEDTAVYYCASRDYDYDGRYFDYWGRGTLVTVSSASTKGPSVFPLAPSSKSTSGGTAALGCLVKDYFPEPVTVSWNSGALTSGVHTFPAVLQSSGLYSLSSVVTVPSSSLGTQTYICNVNHKPSNTKVDKKVEPKSCDKTHTCPPCPAPEAAGGPSVFLFPPKPKDTLMISRTPEVTCVVVDVSHEDPEVKFNWYVDGVEVHNAKTKPREEQYNSTYRVVSVLTVLHQDWLNGKEYKCKVSNKALPAPIEKTISKAKGQPRRPRVYTLPPSREEMTKNQVSLVCLVKGFYPSDIAVEWESNGQPENNYKTTPPVLDSDGSFFLYSVLTVDKSRWQQGNVFSCSVMHEALHNHYTQKSLSLSPG
light 2: DIQMTQSPSSLSASVGDRVTITCSASSSVTYMYWYQRKPGDAPKLLIYDTSNLASGVPSRFSGSGSGTDYTFTISSLQPEDIATYYCQQWSSHIFTFGQGTKVEIKRTVAAPSVFIFPPSDEQLKSGTASVVCLLNNFYPREAKVQWKVDNALQSGNSQESVTEQDSKDSTYSLSSTLTLSKADYEKHKVYACEVTHQGLSSPVTKSFNRGEC
For B4, the “EC50 CHO-K1 EGFR Low (nM)” value worked out at 0.0248 nM and the “EC50 CHO-K1 EGFR Med (nM)” value amounted to 0.00489 nM.
